From US8324357, “Universal fieldable assay with unassisted visual detection” (University of Southern California)

What was measured:
VEGF165 = VEGF165 (Homo sapiens, UniProt P15692-4 P15692-4:27-191); experiment: EMSA; IC buffer, 3 mM CaCl2; details: tags: R&D Systems or USB; chain copies: 2 (inferred)
[1] = biological target: Russell's viper venom factor X activator (RVV-X) (UniProt Q7LZ61;Q4PRD1;Q4PRD2 Q7LZ61:189-619,Q4PRD1:24-146,Q4PRD2:25-158); experiment: EMSA; details: tags: Haematologic Technologies
Sequence of Russell's viper venom factor X activator (RVV-X) (Q7LZ61 189-619, chain 1 of 3): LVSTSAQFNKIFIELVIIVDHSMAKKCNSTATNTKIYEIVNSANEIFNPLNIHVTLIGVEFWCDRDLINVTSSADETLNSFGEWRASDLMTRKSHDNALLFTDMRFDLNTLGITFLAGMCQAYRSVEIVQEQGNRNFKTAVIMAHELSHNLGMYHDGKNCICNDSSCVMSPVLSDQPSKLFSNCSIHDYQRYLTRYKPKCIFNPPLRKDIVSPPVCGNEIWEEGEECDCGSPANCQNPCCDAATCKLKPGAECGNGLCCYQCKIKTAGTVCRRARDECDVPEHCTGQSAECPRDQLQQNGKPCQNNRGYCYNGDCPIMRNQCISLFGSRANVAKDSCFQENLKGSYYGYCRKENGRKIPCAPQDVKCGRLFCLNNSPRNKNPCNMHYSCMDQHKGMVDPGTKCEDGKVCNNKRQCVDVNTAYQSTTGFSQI
Sequence of Russell's viper venom factor X activator (RVV-X) (Q4PRD1 24-146, chain 2 of 3): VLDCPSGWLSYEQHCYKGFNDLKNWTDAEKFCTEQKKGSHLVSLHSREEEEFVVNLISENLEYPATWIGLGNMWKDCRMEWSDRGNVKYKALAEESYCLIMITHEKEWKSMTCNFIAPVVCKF
Sequence of Russell's viper venom factor X activator (RVV-X) (Q4PRD2 25-158, chain 3 of 3): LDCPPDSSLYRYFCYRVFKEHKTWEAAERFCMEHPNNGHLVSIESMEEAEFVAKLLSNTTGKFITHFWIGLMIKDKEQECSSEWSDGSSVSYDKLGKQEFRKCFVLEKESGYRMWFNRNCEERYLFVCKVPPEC

Sequence of VEGF165 (P15692 other isoform, or with tags, fused parts or gaps): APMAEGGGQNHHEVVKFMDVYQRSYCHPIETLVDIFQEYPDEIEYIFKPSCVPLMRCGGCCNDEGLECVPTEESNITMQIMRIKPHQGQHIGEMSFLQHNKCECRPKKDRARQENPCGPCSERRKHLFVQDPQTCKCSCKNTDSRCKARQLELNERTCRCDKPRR

B1: RNA132 (ssRNA)
RNA: GGGAGGGAAUCAGUGAAUGCUUAUACAUCCCUCCUUGAGCAGUCGAUUAGUUUCGACAGGAGGCUCAC
VEGF165
  Kd: 5.7 nM
[1]
  Kd: 5.7 nM
